Experimental data published in article PMC12312269, “Directed evolution of α-ketoisovalerate decarboxylase for improved isobutanol and 3-methyl-1-butanol production in cyanobacteria” (Biotechnology for Biofuels and Bioproducts, 2025).

Molecular target: the molecule itself
Assay: crystal structure; hanging-drop vapour diffusion, 16-17.8% PEG6000 or PEG3350, 0.1 M MES pH 6.0, 20 °C; space group C2, four molecules (two dimers) in the asymmetric unit

B1: α-ketoisovalerate decarboxylase Kivd^S286T (enzyme, Lactococcus lactis)
chain: MYTVGDYLLDRLHELGIEEIFGVPGDYNLQFLDQIISHKDMKWVGNANELNASYMADGYARTKKAAAFLTTFGVGELSAVNGLAGSYAENLPVVEIVGSPTSKVQNEGKFVHHTLADGDFKHFMKMHEPVTAARTLLTAENATVEIDRVLSALLKERKPVYINLPVDVAAAKAEKPSLPLKKENSTSNTSDQEILNKIQESLKNAKKPIVITGHEIISFGLEKTVTQFISKTKLPITTLNFGKSSVDEALPSFLGIYNGTLSEPNLKEFVESADFILMLGVKLTDTSTGAFTHHLNENKMISLNIDEGKIFNERIQNFDFESLISSLLDLSEIEYKGKYIDKKQEDFVPSNALLSQDRLWQAVENLTQSNETIVAEQGTSFFGASSIFLKSKSHFIGQPLWGSIGYTFPAALGSQIADKESRHLLFIGDGSLQLTVQELGLAIREKINPICFIINNDGYTVEREIHGPNQSYNDIPMWNYSKLPESFGATEDRVVSKIVRTENEFVSVMKEAQADPNRMYWIELILAKEGAPKVLKKMGKLFAEQNKS
notes: α-ketoisovalerate decarboxylase (Kivd) from Lactococcus lactis with the substitution S286T; the structure section names residues up to 548; Stored with 2.5 mM MgSO4 and 0.1 mM ThDP; also called ST; not shown: H6-Ub, N-terminal, cleaved
- stoichiometry N: 4
